B1: H2-Kb / B15 (parent complex)
chain 1: QQQVRQSPQSLTVWEGETAILNCSYENSAFDYFPWYQQFPGEGPALLISILSVSDKKEDGRFTIFFNKREKKLSLHIADSQPGDSATYFCAASAASNNRLTLGKGTQVVVLP
chain 2: DSGVVQSPRHIIKEKGGRSVLTCIPISGHSNVVWYQQTLGKELKFLIQHYEKVERDKGFLPSRFSVQQFDDYHSEMNMSALELEDSAMYFCASSRRADAEQFFGPGTRLTVL
chain 3: not shown
chain 4: IQKTPQIQVYSRHPPENGKPNILNCYVTQFHPPHIEIQMLKNGKKIPKVEMSDMSFSKDWSFYILAHTEFTPTETDTYACRVKHDSMAEPKTVYWDRDM
chain 5: SIINFEKL
B2: H2-Kb / Ed9 (parent complex)
chain 1: AQSVTQPDARVTVSEGASLQLRCKYSYFGTPYLFWYVQYPRQGLQLLLKYYPGDPVVQGVNGFEAEFSKSNSSFHLRKASVHWSDWAVYFCAVSITGGYKVVFGSGTRLLVSP
chain 2: DSGVVQSPRHIIKEKGGRSVLTCIPISGHSNVVWYQQTLGKELKFLIQHYEKVERDKGFLPSRFSVQQFDDYHSEMNMSALELEDSAMYFCASSPRQSDYTFGSGTRLLVI
chain 3: not shown
chain 4: B1 chain 4
chain 5: SIINFEKL

Variants of: B1
Test: % of reporter cells activated (NFAT-GFP), raw
Also: test concentration or dose not given here.

Going from chain 5 K7L to chain 5 K7G, the ratio to parent rises from 0.159 to 0.457.

Going from chain 5 K7F to chain 5 K7Q, the ratio to parent rises from 0.0871 to 0.212.

Compared with chain 5 K7W, chain 5 L8T is higher in ratio to parent: 0.836 for the first, 0.977 for the second.

First: chain 5 L8Y
Second: chain 5 L8W
The ratio to parent of the first is lower: 0.793 for the first, 0.805 for the second.

Going from chain 5 I3E to chain 5 I3G, the ratio to parent falls from 0.599 to 0.362.

Compared with chain 5 I3R, chain 5 I3V is higher in ratio to parent: 0.339 for the first, 0.798 for the second.

Going from chain 5 E6W to chain 5 E6P, the ratio to parent rises from 0.0482 to 0.328.

Going from chain 5 E6R to chain 5 E6T, the ratio to parent falls from 0.221 to 0.132.

First: chain 5 E6K
Second: chain 5 E6M
The ratio to parent of the first is higher: 0.623 for the first, 0.324 for the second.

Going from chain 5 E6Q to chain 5 E6C, the ratio to parent rises from 0.41 to 0.47.

Going from chain 5 N4R to chain 5 N4C, the ratio to parent falls from 0.382 to 0.0905.

Going from chain 5 N4P to chain 5 I2A, the ratio to parent rises from 0.00661 to 0.958.

First: chain 5 I2P
Second: chain 5 I2K
The ratio to parent of the first is lower: 0.772 for the first, 0.859 for the second.

Going from chain 5 S1E to chain 5 S1A, the ratio to parent rises from 0.759 to 0.847.

Going from chain 5 F5R to chain 5 F5H, the ratio to parent falls from 0.96 to 0.944.

Variants of: B2
Test: % of reporter cells activated (NFAT-GFP), raw

First: chain 5 L8H
Second: chain 5 L8P
The ratio to parent of the first is higher: 1.16 for the first, 0.817 for the second.

Compared with chain 5 L8C, chain 5 I2P is higher in ratio to parent: 0.957 for the first, 1 for the second.

First: chain 5 I2V
Second: chain 5 I2N
The ratio to parent of the first is higher: 1.32 for the first, 0.905 for the second.

First: chain 5 I2Y
Second: chain 5 I2M
The ratio to parent of the first is lower: 0.858 for the first, 1.18 for the second.

Compared with chain 5 I2L, chain 5 I2E is lower in ratio to parent: 1.31 for the first, 1.11 for the second.

Compared with chain 5 I2H, chain 5 I2D is higher in ratio to parent: 0.854 for the first, 1.21 for the second.

First: chain 5 I2R
Second: chain 5 I3H
The ratio to parent of the first is lower: 1.12 for the first, 1.17 for the second.

Compared with chain 5 I3V, chain 5 I3E is lower in ratio to parent: 1.12 for the first, 0.56 for the second.

First: chain 5 I3S
Second: chain 5 I3F
The ratio to parent of the first is higher: 1.01 for the first, 0.0133 for the second.

Going from chain 5 I3C to chain 5 I3L, the ratio to parent rises from 0.633 to 1.03.

First: chain 5 E6D
Second: chain 5 E6W
The ratio to parent of the first is higher: 0.85 for the first, 0.0935 for the second.

First: chain 5 E6H
Second: chain 5 E6S
The ratio to parent of the first is higher: 0.73 for the first, 0.469 for the second.

Going from chain 5 E6N to chain 5 E6M, the ratio to parent rises from 0.203 to 0.725.

Compared with chain 5 E6Q, chain 5 E6C is lower in ratio to parent: 0.646 for the first, 0.0497 for the second.

Going from chain 5 S1F to chain 5 S1A, the ratio to parent rises from 0.245 to 1.17.

First: chain 5 S1L
Second: chain 5 S1R
The ratio to parent of the first is lower: 0.0324 for the first, 0.402 for the second.

Compared with chain 5 S1C, chain 5 S1G is higher in ratio to parent: 0.147 for the first, 0.224 for the second.

Compared with chain 5 K7P, chain 5 K7I is higher in ratio to parent: 0.525 for the first, 0.919 for the second.

Compared with chain 5 K7A, chain 5 K7V is higher in ratio to parent: 0.47 for the first, 0.845 for the second.

Compared with chain 5 N4D, chain 5 N4T is lower in ratio to parent: 0.832 for the first, 0.127 for the second.

Compared with chain 5 F5H, chain 5 F5V is lower in ratio to parent: 1.29 for the first, 1.27 for the second.

First: chain 5 F5Q
Second: chain 5 F5L
The ratio to parent of the first is lower: 1.33 for the first, 1.36 for the second.

chain 5 F5M was tested, and the ratio to parent was 1.32.

Reference: article PMC11480844 (2024)
